Assay results taken from patent publication US20020103111A1, “Inhibitors of MAdCAM-1-mediated interactions and methods of use therefor” (Millennium Pharmaceuticals, Inc., priority 1996, published 2002).
Values joined by “and” are separate entries in the source; they are usually repeats but may differ in a detail not shown here. Equal values may be shown once. Bridge positions count the residues as written; N and C are the ends. Ends that are not written are not given here. * marks the point of attachment. Butanoyl(4-pyren-1-yl) = O=C(CCCc1ccc2ccc3cccc4ccc1c2c34)*; Tpa = triphenylacetyl, O=C(C(c1ccccc1)(c1ccccc1)c1ccccc1)*; Acetyl(1-pyrenyl) = O=C(Cc1ccc2ccc3cccc4ccc1c2c34)*; Phenylacetyl(4-Ph) = O=C(Cc1ccc(-c2ccccc2)cc1)*; Benzoyl(4-heptyl) = CCCCCCCc1ccc(C(=O)*)cc1; Acetyl(1-naphthyl) = O=C(Cc1cccc2ccccc12)*; Diphenylacetyl = O=C(C(c1ccccc1)c1ccccc1)*; cPrCO(2,2,3,3-Me4) = CC1(C)C(C(=O)*)C1(C)C; Ibuprofenoyl = CC(C)Cc1ccc(C(C)C(=O)*)cc1; Hexanoyl(6-Ph) = O=C(CCCCCc1ccccc1)*; PhAc = O=C(Cc1ccccc1)*

Experiments:
[1] = biological target: human α4β7 integrin (human), P13612; assay: inhibition of HUT 78 cell adhesion to murine MAdCAM-1/mCk
[2] = biological target: human α4β7 integrin (human), P13612; assay: inhibition of HUT 78 cell adhesion to murine MAdCAM-1/mCk at 500 µM
[3] = biological target: human α4β7 integrin (human), P13612; assay: inhibition of RPMI 8866 cell adhesion to huMAdCAM-1-Ig
[4] = biological target: human α4β7 integrin (human) (UniProt P13612); assay: inhibition of HUT 78 cell adhesion to murine MAdCAM-1/mCk
[5] = biological target: human α4β7 integrin (human) (UniProt P13612); assay: inhibition of HUT 78 cell adhesion to murine MAdCAM-1/mCk at 500 µM
[6] = biological target: human α4β7 integrin (human) (UniProt P13612); assay: inhibition of HUT 78 cell adhesion to murine MAdCAM-1/mCk at 50 µM
[7] = biological target: human α4β7 integrin (human), P13612; assay: inhibition of HUT 78 cell adhesion to murine MAdCAM-1/mCk at 250 µM

Which results are given for Ac-LETSL (not fully specified (C-terminus); printed as Ac-Leu-Glu-Thr-Ser-Leu) [Ac-Leu-Glu-Thr-Ser-Leu]?
IC50 [1]: 60.7 µM; % Adhesion Inhibition [2]: 98%

With LDTSL (modifications not checked) [R1-Leu-Asp-Thr-Ser-Leu, L# 1491 (Table 4)] as the binder, how does the IC50 [3] read?
The IC50 was 3.4 µM.

With Ac-LDASL (not fully specified (C-terminus); printed as Ac-Leu-Asp-Ala-Ser-Leu) [Ac-Leu-Asp-Ala-Ser-Leu] as the binder, how does the IC50 [1] read?
Its IC50 is 1000 µM.

And the % Adhesion Inhibition [2]?
The % Adhesion Inhibition was 47%.

With PLDTSL (modifications not checked) [Pba-Pro-Leu-Asp-Thr-Ser-Leu] as the binder, how does the IC50 [1] read?
The IC50 was 47 µM.

How did the IC50 [4] turn out when {Acetyl(1-naphthyl)}-LDTSL (not fully specified (C-terminus); printed as Npa-Leu-Asp-Thr-Ser-Leu) [Npa-Leu-Asp-Thr-Ser-Leu] was run?
The IC50 was 548 µM.

And the % Adhesion Inhibition [5]?
Its % Adhesion Inhibition is 39%.

Which results are given for Ac-RGLDT (not fully specified (C-terminus); printed as Ac-Arg-Gly-Leu-Asp-Thr) [Ac-Arg-Gly-Leu-Asp-Thr]?
IC50 [1]: 542 µM; % Adhesion Inhibition [2]: 48%

For Ac-HWRGLDT (not fully specified (C-terminus); printed as Ac-His-Trp-Arg-Gly-Leu-Asp-Thr) [Ac-His-Trp-Arg-Gly-Leu-Asp-Thr], which IC50 [1] is on record?
Its IC50 is 584 µM.

And the % Adhesion Inhibition [2]?
Its % Adhesion Inhibition is 49%.

For Ibuprofenoyl-LDTSL (not fully specified (C-terminus); printed as Impa-Leu-Asp-Thr-Ser-Leu) [Impa-Leu-Asp-Thr-Ser-Leu], which IC50 [4] is on record?
The IC50 was 1140 µM.

What about the % Adhesion Inhibition [5] of the same binder?
Its % Adhesion Inhibition is 44%.

Tpa-LDTSL [Tpa-Leu-Asp-Thr-Ser-Leu] was tested. Which IC50 [4] did it give?
The IC50 was 0.3 µM.

For Ac-LDTSL-NH2 [Ac-Leu-Asp-Thr-Ser-Leu], which IC50 [4] is on record?
The IC50 was 530 µM and 278 µM.

And the % Adhesion Inhibition [5]?
The % Adhesion Inhibition was 50% and 71%.

{Acetyl(1-pyrenyl)}-LDTSL (not fully specified (C-terminus); printed as Paa-Leu-Asp-Thr-Ser-Leu) [Paa-Leu-Asp-Thr-Ser-Leu] was tested. Which IC50 [4] did it give?
Its IC50 is 0.5 µM.

Which results are given for Ac-LFTSL (not fully specified (C-terminus); printed as Ac-Leu-Phe-Thr-Ser-Leu) [Ac-Leu-Phe-Thr-Ser-Leu]?
IC50 [1]: 300 µM; % Adhesion Inhibition [2]: 29%

Ac-GLDTS (not fully specified (C-terminus); printed as Ac-Gly-Leu-Asp-Thr-Ser) [Ac-Gly-Leu-Asp-Thr-Ser] was tested. Which IC50 [1] did it give?
The IC50 was 745 µM.

What about the % Adhesion Inhibition [2] of the same binder?
Its % Adhesion Inhibition is 43%.

How did the IC50 [1] turn out when LYTSL (modifications not checked) [Pba-Leu-Tyr-Thr-Ser-Leu] was run?
Its IC50 is 30 µM.

What about the % Adhesion Inhibition [2] of the same binder?
Its % Adhesion Inhibition is 100%.

How did the IC50 [4] turn out when {Benzoyl(4-heptyl)}-LDTSL (not fully specified (C-terminus); printed as Hbz-Leu-Asp-Thr-Ser-Leu) [Hbz-Leu-Asp-Thr-Ser-Leu] was run?
The IC50 was 401 µM.

What about the % Adhesion Inhibition [5] of the same binder?
Its % Adhesion Inhibition is 51%.

Which results are given for Ac-RGLDTSL (not fully specified (C-terminus); printed as Ac-Arg-Gly-Leu-Asp-Thr-Ser-Leu) [Ac-Arg-Gly-Leu-Asp-Thr-Ser-Leu]?
IC50 [1]: 1580 µM; % Adhesion Inhibition [2]: 35%

For Ac-GLDTSL (not fully specified (C-terminus); printed as Ac-Gly-Leu-Asp-Thr-Ser-Leu) [Ac-Gly-Leu-Asp-Thr-Ser-Leu], which IC50 [1] is on record?
Its IC50 is 339 µM.

What about the % Adhesion Inhibition [2] of the same binder?
Its % Adhesion Inhibition is 58%.

What does the source list for {cPrCO(2,2,3,3-Me4)}-LDTSL [Tpc-Leu-Asp-Thr-Ser-Leu]?
IC50 [4]: 121 µM; % Adhesion Inhibition [5]: 39%

For Ac-WRGLDTS (not fully specified (C-terminus); printed as Ac-Trp-Arg-Gly-Leu-Asp-Thr-Ser) [Ac-Trp-Arg-Gly-Leu-Asp-Thr-Ser], which IC50 [1] is on record?
Its IC50 is 862 µM.

What about the % Adhesion Inhibition [2] of the same binder?
Its % Adhesion Inhibition is 44%.

What does the source list for {Hexanoyl(6-Ph)}-LDTSL (not fully specified (C-terminus); printed as Phx-Leu-Asp-Thr-Ser-Leu) [Phx-Leu-Asp-Thr-Ser-Leu]?
IC50 [4]: 818 µM; % Adhesion Inhibition [5]: 32%

Which results are given for Ac-LDTSL (not fully specified (C-terminus); printed as Ac-Leu-Asp-Thr-Ser-Leu) [Ac-Leu-Asp-Thr-Ser-Leu (00389-1A)]?
IC50 [4]: 205 µM; % Adhesion Inhibition [5]: 29%

With Ac-RGLDTS (not fully specified (C-terminus); printed as Ac-Arg-Gly-Leu-Asp-Thr-Ser) [Ac-Arg-Gly-Leu-Asp-Thr-Ser] as the binder, how does the IC50 [1] read?
The IC50 was 1790 µM.

And the % Adhesion Inhibition [2]?
Its % Adhesion Inhibition is 31%.

Which results are given for Ac-LDTTL (not fully specified (C-terminus); printed as Ac-Leu-Asp-Thr-Thr-Leu) [Ac-Leu-Asp-Thr-Thr-Leu]?
IC50 [1]: 101 µM; % Adhesion Inhibition [2]: 98%

Which results are given for Ac-WRGLDT (not fully specified (C-terminus); printed as Ac-Trp-Arg-Gly-Leu-Asp-Thr) [Ac-Trp-Arg-Gly-Leu-Asp-Thr]?
IC50 [1]: 725 µM; % Adhesion Inhibition [2]: 46%

Which results are given for {Butanoyl(4-pyren-1-yl)}-LDTSL (not fully specified (C-terminus); printed as Pba-Leu-Asp-Thr-Ser-Leu) [Pba-Leu-Asp-Thr-Ser-Leu (00386-1A)]?
IC50 [4]: 2.8 µM; % Adhesion Inhibition [6]: 88%

With Diphenylacetyl-LDTSL (not fully specified (C-terminus); printed as Dpa-Leu-Asp-Thr-Ser-Leu) [Dpa-Leu-Asp-Thr-Ser-Leu] as the binder, how does the IC50 [4] read?
Its IC50 is 11 µM.

For PhAc-LDTSL (not fully specified (C-terminus); printed as Pha-Leu-Asp-Thr-Ser-Leu) [Pha-Leu-Asp-Thr-Ser-Leu], which IC50 [4] is on record?
Its IC50 is 2130 µM.

What about the % Adhesion Inhibition [5] of the same binder?
Its % Adhesion Inhibition is 38%.

With Ac-LDTSF (not fully specified (C-terminus); printed as Ac-Leu-Asp-Thr-Ser-Phe) [Ac-Leu-Asp-Thr-Ser-Phe] as the binder, how does the IC50 [1] read?
The IC50 was 144 µM.

And the % Adhesion Inhibition [2]?
The % Adhesion Inhibition was 86%.

How did the IC50 [4] turn out when {Phenylacetyl(4-Ph)}-LDTSL (not fully specified (C-terminus); printed as Bipa-Leu-Asp-Thr-Ser-Leu) [Bipa-Leu-Asp-Thr-Ser-Leu] was run?
The IC50 was 485 µM.

What about the % Adhesion Inhibition [5] of the same binder?
Its % Adhesion Inhibition is 54%.

What does the source list for Ac-LDSSL (not fully specified (C-terminus); printed as Ac-Leu-Asp-Ser-Ser-Leu) [Ac-Leu-Asp-Ser-Ser-Leu]?
IC50 [1]: 611 µM; % Adhesion Inhibition [2]: 38%

For LATSL (modifications not checked) [Pba-Leu-Ala-Thr-Ser-Leu], which IC50 [1] is on record?
Its IC50 is 28 µM.

And the % Adhesion Inhibition [7]?
Its % Adhesion Inhibition is 100%.

Ac-CLDTSLC (disulfide 1-7) [Ac-Cys*-Leu-Asp-Thr-Ser-Leu-Cys*] was tested. Which IC50 [1] did it give?
Its IC50 is 102 µM.

What about the % Adhesion Inhibition [7] of the same binder?
Its % Adhesion Inhibition is 51%.

For Ac-LDVSL (not fully specified (C-terminus); printed as Ac-Leu-Asp-Val-Ser-Leu) [Ac-Leu-Asp-Val-Ser-Leu], which IC50 [1] is on record?
Its IC50 is 71 µM.
